Experimental data from US20220098306A1 (published 2022).
Blank lines part the entries; values can stand above or below the binder they belong to.

Key:
[1] = biological target: 4F12_H2_L1.1
[2] = biological target: T1, mouse Fc fusion of B7H3, full extracellular V1C1-V2C2 domain (human, UniProt Q5ZPR3 29-466); test: Octet
T1 chain: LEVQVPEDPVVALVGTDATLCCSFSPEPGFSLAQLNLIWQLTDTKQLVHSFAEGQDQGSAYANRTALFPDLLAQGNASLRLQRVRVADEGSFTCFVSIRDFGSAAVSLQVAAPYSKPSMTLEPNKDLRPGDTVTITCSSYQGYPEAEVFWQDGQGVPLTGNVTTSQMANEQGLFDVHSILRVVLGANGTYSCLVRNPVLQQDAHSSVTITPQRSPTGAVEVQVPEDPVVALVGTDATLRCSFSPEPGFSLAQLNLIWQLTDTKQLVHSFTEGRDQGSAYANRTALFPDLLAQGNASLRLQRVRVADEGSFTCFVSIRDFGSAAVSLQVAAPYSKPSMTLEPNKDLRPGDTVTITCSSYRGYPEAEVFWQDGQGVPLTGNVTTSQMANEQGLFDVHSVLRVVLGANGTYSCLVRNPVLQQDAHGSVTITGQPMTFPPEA

[3] = biological target: T2, huB7H3 (V2C2); test: Octet
T2 chain: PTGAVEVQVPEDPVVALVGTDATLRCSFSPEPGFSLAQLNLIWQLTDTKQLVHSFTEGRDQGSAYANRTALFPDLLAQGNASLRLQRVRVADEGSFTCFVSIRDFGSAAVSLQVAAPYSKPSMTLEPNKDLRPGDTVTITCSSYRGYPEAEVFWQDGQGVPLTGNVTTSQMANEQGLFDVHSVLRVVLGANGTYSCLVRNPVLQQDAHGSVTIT

[4] = biological target: T3, huB7H3 (V1C1); test: Octet
T3 chain: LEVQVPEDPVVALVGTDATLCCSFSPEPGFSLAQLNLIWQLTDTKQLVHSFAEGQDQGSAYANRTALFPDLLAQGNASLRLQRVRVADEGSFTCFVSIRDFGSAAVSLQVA

[5] = biological target: CD28 (antigen of the affinity determinations) (human, UniProt P10747 19-152); test: Octet; avid

B1: human B7H3 (V1C1-V2C2) (ligand)
chain: T1 chain
Kd [1]: < 0.1 nM

B4: XENP28428 (antibody, V domains shown)
VH: EVQLLESGGGLVQPGGSLRLSCAASGFTFSSYAMSWVRQAPGKGLEWVSTISGSGDSTYYADSVKGRFTISRDNSKNTLYLQMNSLRAEDTAVYYCAKSGPGLRQVGFDYWGQGTLVTVSS
VL: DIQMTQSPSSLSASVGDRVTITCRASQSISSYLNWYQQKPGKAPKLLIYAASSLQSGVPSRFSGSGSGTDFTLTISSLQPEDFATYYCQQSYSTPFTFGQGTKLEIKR
Kd [5]: 14.5 nM

Second part, the binder after the results:

Kd [2]: 16 nM | Kd [3]: 21 nM | Kd [4]: 21 nM
B2: XENP34717 (bispecific antibody)
heavy 1: EVQLLESGGGLVQPGGSLRLSCAASGFTFSSYYMSWVRQAPGKGLEWVSTISESGDSTYYADSVKGRFTISRDNSKNTLYLQMNSLRAEDTAVYYCAKSGPGLRQVGFDYWGQGTLVTVSSASTKGPSVFPLAPSSKSTSGGTAALGCLVKDYFPEPVTVSWNSGALTSGVHTFPAVLQSSGLYSLSSVVTVPSSSLGTQTYICNVNHKPSDTKVDKKVEPKSCDKTHTCPPCPAPPVAGPSVFLFPPKPKDTLMISRTPEVTCVVVDVKHEDPEVKFNWYVDGVEVHNAKTKPREEEYNSTYRVVSVLTVLHQDWLNGKEYKCKVSNKALPAPIEKTISKAKGQPREPQVYTLPPSREEMTKNQVSLTCDVSGFYPSDIAVEWESDGQPENNYKTTPPVLDSDGSFFLYSKLTVDKSRWEQGDVFSCSVMHEALHNHYTQKSLSLSPGK
heavy 2: QVQLVQSGAEVKKPGASVKVSCKASGYIFTNNYMHWVRQAPGQGLEWMGIISPSVGRTAYAQKFQGRVTMTRDTSTSTVYMELSSLRSEDTAVYYCARGGGSSPRLDYWGQGTLVTVSSASTKGPSVFPLAPSSKSTSGGTAALGCLVKDYFPEPVTVSWNSGALTSGVHTFPAVLQSSGLYSLSSVVTVPSSSLGTQTYICNVNHKPSNTKVDKKVEPKSCDKTHTCPPCPAPPVAGPSVFLFPPKPKDTLMISRTPEVTCVVVDVKHEDPEVKFNWYVDGVEVHNAKTKPREEQYNSTYRVVSVLTVLHQDWLNGKEYKCKVSNKALPAPIEKTISKAKGQPREPQVYTLPPSREQMTKNQVKLTCLVKGFYPSDIAVEWESNGQPENNYKTTPPVLDSDGSFFLYSKLTVDKSRWQQGNVFSCSVMHEALHNHYTQKSLSLSPGK
light: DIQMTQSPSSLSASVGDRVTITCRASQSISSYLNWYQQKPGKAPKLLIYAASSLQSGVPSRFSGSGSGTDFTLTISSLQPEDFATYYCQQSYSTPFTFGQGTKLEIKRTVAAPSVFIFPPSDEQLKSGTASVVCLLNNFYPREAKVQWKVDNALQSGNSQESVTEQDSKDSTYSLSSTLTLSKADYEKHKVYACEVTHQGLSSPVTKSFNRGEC

Kd [2]: 4.3 nM | Kd [3]: 6.4 nM | Kd [4]: 4.4 nM
B3: XENP34728 (6A1) (antibody, V domains shown)
VH: EVQLLESGGGLVQPGGSLRLSCAASGFTFSNYYMAWVRQAPGKGLEWVSSISTGGGSTYYRDSVKGRFTISRDNSKSTLYLQMNSLRAEDTAVYYCTTDLSAIAATPFAYWGQGTLVTVSS
VL: DIQMTQSPSSLSASVGDRVTITCRASQNIYTSLAWYQQKPGKAPKLLIYNAHSLQTGIPSRFSGSGSGADFTLTISSLQPEDFATYFCQQYYSGLTFGSGTKLEIKR
